Patent publication US20210388087A1 (Chugai, published 2021)
Substitutions are numbered along the chain they refer to. Values belong to the binder of their own block, whether it stands above or below them.

Target: T1, CD3 epsilon homodimer protein (UniProt P07766 23-126)
T1 construct: also called CD3 (CD3 epsilon)
Assay: SPR Biacore T200, CD3e homodimer on chip, vs unaltered GLS3000 antibody
Procedure: An appropriate amount of CD3 epsilon homodimer protein was immobilized onto Sensor chip CM4 (GE Healthcare Japan Corp.) by the amine coupling method. Then, the antibody having an appropriate concentration was injected thereto as an analyte and allowed to interact with the CD3 epsilon homodimer protein on the sensor chip. Then, the sensor chip was regenerated by the injection of 10 mmol/L glycine-HCl (pH 1.5). The assay was conducted at 25 degrees C., and HBS-EP+(GE Healthcare Japan Corp.) was used as a running buffer. […] Each parameter was calculated using Biacore T200 Evaluation Software (GE Healthcare Japan Corp.).

T1 sequence (P07766 23-126): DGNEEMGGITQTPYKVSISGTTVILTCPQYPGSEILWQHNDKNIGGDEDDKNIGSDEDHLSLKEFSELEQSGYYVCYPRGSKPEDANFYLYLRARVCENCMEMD

B1: GLS3000 N30Y (antibody, name in Kabat numbering, V domains shown)
VH: QVQLVESGGGVVQPGRSLRLSCAASGFTFSNAWMHWVRQAPGKGLEWVAQIKAKSNNYATYYAESVKGRFTISRDDSKNSLYLQMNSLKTEDTAVYYCRYVHYGAYYGVDAWGQGTTVTVSS
VL: DIVMTQSPLSLPVTPGEPASISCRSSQSLVHSNRYTYLHWYQQKPGQAPRLLIYKVSNRFSGVPDRFSGSGSGTDFTLKISRVEAEDVGVYYCGQGTQVPYTFGQGTKLEIK
notes: one-arm IgG as m2
ratio of amounts bound (Z=Y/X): 1.04

B5: GLS3000 P95D (antibody, name in Kabat numbering, V domains shown)
VH: B1 VH
VL: B1 VL with Y35N, P100D
notes: one-arm IgG as m2
ratio of amounts bound (Z=Y/X): 0.24

B7: GLS3000 N53L (antibody, name in Kabat numbering, V domains shown)
VH: B1 VH
VL: B1 VL with Y35N, N58L
notes: one-arm IgG as m2
ratio of amounts bound (Z=Y/X): 0.56

B8: GLS3000 N53A (antibody, name in Kabat numbering, V domains shown)
VH: B1 VH
VL: B1 VL with Y35N, N58A
notes: one-arm IgG as m2
ratio of amounts bound (Z=Y/X): 0.61

B9: GLS3000 N53D (antibody, name in Kabat numbering, V domains shown)
VH: B1 VH
VL: B1 VL with Y35N, N58D
notes: one-arm IgG as m2
ratio of amounts bound (Z=Y/X): 0.34

B10: GLS3000 N53I (antibody, name in Kabat numbering, V domains shown)
VH: B1 VH
VL: B1 VL with Y35N, N58I
notes: one-arm IgG as m2
ratio of amounts bound (Z=Y/X): 0.5

B12: GLS3000 N53Y (antibody, name in Kabat numbering, V domains shown)
VH: B1 VH
VL: B1 VL with Y35N, N58Y
notes: one-arm IgG as m2
ratio of amounts bound (Z=Y/X): 0.67

B13: GLS3000 N53R (antibody, name in Kabat numbering, V domains shown)
VH: B1 VH
VL: B1 VL with Y35N, N58R
notes: one-arm IgG as m2
ratio of amounts bound (Z=Y/X): 1.58

B14: GLS3000 N53M (antibody, name in Kabat numbering, V domains shown)
VH: B1 VH
VL: B1 VL with Y35N, N58M
notes: one-arm IgG as m2
ratio of amounts bound (Z=Y/X): 0.62

B17: GLS3000 N53S (antibody, name in Kabat numbering, V domains shown)
VH: B1 VH
VL: B1 VL with Y35N, N58S
notes: one-arm IgG as m2
ratio of amounts bound (Z=Y/X): 0.69

B19: GLS3000 N53P (antibody, name in Kabat numbering, V domains shown)
VH: B1 VH
VL: B1 VL with Y35N, N58P
notes: one-arm IgG as m2
ratio of amounts bound (Z=Y/X): 0.81

B20: GLS3000 N53V (antibody, name in Kabat numbering, V domains shown)
VH: B1 VH
VL: B1 VL with Y35N, N58V
notes: one-arm IgG as m2
ratio of amounts bound (Z=Y/X): 0.56

B21: GLS3000 N53E (antibody, name in Kabat numbering, V domains shown)
VH: B1 VH
VL: B1 VL with Y35N, N58E
notes: one-arm IgG as m2
ratio of amounts bound (Z=Y/X): 0.54

B24: GLS3000 N53K (antibody, name in Kabat numbering, V domains shown)
VH: B1 VH
VL: B1 VL with Y35N, N58K
notes: one-arm IgG as m2
ratio of amounts bound (Z=Y/X): 1.08

B26: GLS3000 N53G (antibody, name in Kabat numbering, V domains shown)
VH: B1 VH
VL: B1 VL with Y35N, N58G
notes: one-arm IgG as m2
ratio of amounts bound (Z=Y/X): 0.76

B27: GLS3000 N53Q (antibody, name in Kabat numbering, V domains shown)
VH: B1 VH
VL: B1 VL with Y35N, N58Q
notes: one-arm IgG as m2
ratio of amounts bound (Z=Y/X): 0.77

B29: GLS3000 N53W (antibody, name in Kabat numbering, V domains shown)
VH: B1 VH
VL: B1 VL with Y35N, N58W
notes: one-arm IgG as m2
ratio of amounts bound (Z=Y/X): 0.81

B31: GLS3000 N53F (antibody, name in Kabat numbering, V domains shown)
VH: B1 VH
VL: B1 VL with Y35N, N58F
notes: one-arm IgG as m2
ratio of amounts bound (Z=Y/X): 0.69

B41: GLS3000 N53T (antibody, name in Kabat numbering, V domains shown)
VH: B1 VH
VL: B1 VL with Y35N, N58T
notes: one-arm IgG as m2
ratio of amounts bound (Z=Y/X): 0.56

B42: GLS3000 N53H (antibody, name in Kabat numbering, V domains shown)
VH: B1 VH
VL: B1 VL with Y35N, N58H
notes: one-arm IgG as m2
ratio of amounts bound (Z=Y/X): 1.18

B43: GLS3000 P95A (antibody, name in Kabat numbering, V domains shown)
VH: B1 VH
VL: B1 VL with Y35N, P100A
notes: one-arm IgG as m2
ratio of amounts bound (Z=Y/X): 0.63

B46: GLS3000 P95E (antibody, name in Kabat numbering, V domains shown)
VH: B1 VH
VL: B1 VL with Y35N, P100E
notes: one-arm IgG as m2
ratio of amounts bound (Z=Y/X): 0.39

Second part, the binder after the results:

ratio of amounts bound (Z=Y/X): 0.75
B2: GLS3000 R24D (antibody, name in Kabat numbering, V domains shown)
VH: B1 VH
VL: B1 VL with R24D, Y35N
notes: one-arm IgG as m2

ratio of amounts bound (Z=Y/X): 0.96
B3: GLS3000 Q93S (antibody, name in Kabat numbering, V domains shown)
VH: B1 VH
VL: B1 VL with Y35N, Q98S
notes: one-arm IgG as m2

ratio of amounts bound (Z=Y/X): 0.88
B4: GLS3000 Q27E (antibody, name in Kabat numbering, V domains shown)
VH: B1 VH
VL: B1 VL with Q27E, Y35N
notes: one-arm IgG as m2

ratio of amounts bound (Z=Y/X): 0.25
B6: GLS3000 Q93P (antibody, name in Kabat numbering, V domains shown)
VH: B1 VH
VL: B1 VL with Y35N, Q98P
notes: one-arm IgG as m2

ratio of amounts bound (Z=Y/X): 0.37
B11: GLS3000 P95G (antibody, name in Kabat numbering, V domains shown)
VH: B1 VH
VL: B1 VL with Y35N, P100G
notes: one-arm IgG as m2

ratio of amounts bound (Z=Y/X): 0.19
B15: GLS3000 Q90D (antibody, name in Kabat numbering, V domains shown)
VH: B1 VH
VL: B1 VL with Y35N, Q95D
notes: one-arm IgG as m2

ratio of amounts bound (Z=Y/X): 0.29
B16: GLS3000 Q27P (antibody, name in Kabat numbering, V domains shown)
VH: B1 VH
VL: B1 VL with Q27P, Y35N
notes: one-arm IgG as m2

ratio of amounts bound (Z=Y/X): 0.43
B18: GLS3000 P95S (antibody, name in Kabat numbering, V domains shown)
VH: B1 VH
VL: B1 VL with Y35N, P100S
notes: one-arm IgG as m2

ratio of amounts bound (Z=Y/X): 0.85
B22: GLS3000 Q27D (antibody, name in Kabat numbering, V domains shown)
VH: B1 VH
VL: B1 VL with Q27D, Y35N
notes: one-arm IgG as m2

ratio of amounts bound (Z=Y/X): 0.72
B23: GLS3000 Q93D (antibody, name in Kabat numbering, V domains shown)
VH: B1 VH
VL: B1 VL with Y35N, Q98D
notes: one-arm IgG as m2

ratio of amounts bound (Z=Y/X): 1.19
B25: GLS3000 Q27R (antibody, name in Kabat numbering, V domains shown)
VH: B1 VH
VL: B1 VL with Q27R, Y35N
notes: one-arm IgG as m2

ratio of amounts bound (Z=Y/X): 0.75
B28: GLS3000 Q93E (antibody, name in Kabat numbering, V domains shown)
VH: B1 VH
VL: B1 VL with Y35N, Q98E
notes: one-arm IgG as m2

ratio of amounts bound (Z=Y/X): 0.24
B30: GLS3000 P95L (antibody, name in Kabat numbering, V domains shown)
VH: B1 VH
VL: B1 VL with Y35N, P100L
notes: one-arm IgG as m2

ratio of amounts bound (Z=Y/X): 0.92
B32: GLS3000 Q27L (antibody, name in Kabat numbering, V domains shown)
VH: B1 VH
VL: B1 VL with Q27L, Y35N
notes: one-arm IgG as m2

ratio of amounts bound (Z=Y/X): 0.87
B33: GLS3000 Q93Y (antibody, name in Kabat numbering, V domains shown)
VH: B1 VH
VL: B1 VL with Y35N, Q98Y
notes: one-arm IgG as m2

ratio of amounts bound (Z=Y/X): 0.5
B34: GLS3000 Q90A (antibody, name in Kabat numbering, V domains shown)
VH: B1 VH
VL: B1 VL with Y35N, Q95A
notes: one-arm IgG as m2

ratio of amounts bound (Z=Y/X): 0.85
B35: GLS3000 Q93A (antibody, name in Kabat numbering, V domains shown)
VH: B1 VH
VL: B1 VL with Y35N, Q98A
notes: one-arm IgG as m2

ratio of amounts bound (Z=Y/X): 0.27
B36: GLS3000 Q90P (antibody, name in Kabat numbering, V domains shown)
VH: B1 VH
VL: B1 VL with Y35N, Q95P
notes: one-arm IgG as m2

ratio of amounts bound (Z=Y/X): 0.17
B37: GLS3000 Q90Y (antibody, name in Kabat numbering, V domains shown)
VH: B1 VH
VL: B1 VL with Y35N, Q95Y
notes: one-arm IgG as m2

ratio of amounts bound (Z=Y/X): 0.83
B38: GLS3000 R24E (antibody, name in Kabat numbering, V domains shown)
VH: B1 VH
VL: B1 VL with R24E, Y35N
notes: one-arm IgG as m2

ratio of amounts bound (Z=Y/X): 0.73
B39: GLS3000 Q90S (antibody, name in Kabat numbering, V domains shown)
VH: B1 VH
VL: B1 VL with Y35N, Q95S
notes: one-arm IgG as m2

ratio of amounts bound (Z=Y/X): 0.86
B40: GLS3000 R24A (antibody, name in Kabat numbering, V domains shown)
VH: B1 VH
VL: B1 VL with R24A, Y35N
notes: one-arm IgG as m2

ratio of amounts bound (Z=Y/X): 1.13
B44: GLS3000 Q93R (antibody, name in Kabat numbering, V domains shown)
VH: B1 VH
VL: B1 VL with Y35N, Q98R
notes: one-arm IgG as m2

ratio of amounts bound (Z=Y/X): 0.86
B45: GLS3000 Q90E (antibody, name in Kabat numbering, V domains shown)
VH: B1 VH
VL: B1 VL with Y35N, Q95E
notes: one-arm IgG as m2
